Laboratory results published in publication PMC10799931, “Cryo- EM structure of the mycobacterial 70S ribosome in complex with ribosome hibernation promotion factor RafH” (Nature Communications, 2024).

B1: RafH (ribosome associated factor under hypoxia), M. smegmatis (natural protein, UniProt A0QZ86 1-258, looked up)
chain: MDVDVSTDGELPGAAEYAREKIGRLSRRAHRPVLHARVRLTRHGDPAVERPVIAQANLDVNGRQVRAQVEGVNAREAVDRLEARLRSRLERIAEHWEARRGGVPAEAGREWRHESEPARRPGYFPRPPEERRIIRRKSFSMVPCTVDEAALEMEMLDYDFHLFTEKGTGFAAVLYKGGPTGYRLVLVIPVPADELSPFEKPITISTHPAPCLTQRDAVERLGLLGLPFLFYIDAAEGRASVIYRRYDGHYGLITPADG
notes: RafH of M. smegmatis, gene MSMEG_3935, 258 amino acid residues (~30 kDa): NTD 1-100, linker 101-130, CTD 131-258; gene synthesised (GenScript) and cloned in pET-28a(+); the methods say only that the gene MSMEG_3935 was cloned; also called MSMEG_3935; source: E. coli C41(DE3), purified (Ni-NTA, size-exclusion chromatography)

How the values were obtained:
[1] = target: B1; assay: cryo-EM structure; single particle cryo-EM of the in-vitro reconstituted 70S ribosome RafH complex (Titan Krios 300 kV, Falcon 3, Relion 3.1.4); overall 2.8 Å; maps with bS1 or E-site tRNA low pass filtered to 3.5 Å; conditions: both partners purified
[2] = target: T1, bacterial ribosomal protein bS1, M. smegmatis (M. smegmatis, UniProt A0QYY6 1-479); assay: as above; conditions: both partners purified
T1 construct: ribosomal protein bS1 of M. smegmatis; only the two N-terminal domains OB1 and OB2 are visible in the map, the rest is disordered; Stood in the assay as a part of the 70S ribosome; the model was begun from AlphaFold2 and docked in the map; also called bS1 r-protein; source: endogenous, in ribosomes purified from M. smegmatis MC2 155
T1 sequence (looked up): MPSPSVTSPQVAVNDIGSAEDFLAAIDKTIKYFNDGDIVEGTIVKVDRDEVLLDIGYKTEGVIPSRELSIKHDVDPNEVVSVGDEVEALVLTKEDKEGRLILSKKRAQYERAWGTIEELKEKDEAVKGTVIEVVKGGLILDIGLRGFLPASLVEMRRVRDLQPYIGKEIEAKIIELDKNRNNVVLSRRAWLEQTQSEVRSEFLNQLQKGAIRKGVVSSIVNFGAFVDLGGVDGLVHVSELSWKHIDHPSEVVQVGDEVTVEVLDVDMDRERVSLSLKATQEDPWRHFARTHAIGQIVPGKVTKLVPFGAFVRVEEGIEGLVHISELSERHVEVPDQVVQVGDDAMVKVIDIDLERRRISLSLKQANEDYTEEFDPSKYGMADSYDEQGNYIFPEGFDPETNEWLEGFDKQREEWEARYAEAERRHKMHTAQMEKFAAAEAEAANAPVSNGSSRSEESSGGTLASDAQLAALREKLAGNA

| Binder | binding result [1] | binding result [2] |
| --- | --- | --- |
| ribosomal protein uS11, M. smegmatis (natural protein, ribosomal protein uS11 of M. smegmatis; Stood in the assay as a part of the 70S ribosome; also called uS11 r-protein; source: endogenous, in ribosomes purified from M. smegmatis MC2 155) not shown | binds |  |
| B1 |  | binds |
| ribosomal protein uS2, M. smegmatis (natural protein, UniProt A0QVB8 1-277, looked up, ribosomal protein uS2 of M. smegmatis; Stood in the assay as a part of the 70S ribosome; also called uS2 r-protein; source: endogenous, in ribosomes purified from M. smegmatis MC2 155) MAVVTMKQLLDSGAHFGHQTRRWNPKMKRFIFTDRNGIYIIDLQQTLTYIDKAYEFVKETVAHGGTVLFVGTKKQAQESIAEEATRVGMPYVNQRWLGGMLTNFSTVHKRLQRLKELEAMEQTGGFEGRTKKEILMLTREKNKLERSLGGIRDMQKVPSAVWVVDTNKEHIAVGEARKLGIPVIAILDTNCDPDVVDYPIPGNDDAIRSAALLTKVIASAVAEGLQARAGQGSGEKPAEGAEPLAEWEQELLAGATAGAADASAEGAAAPESSTDAS |  | binds |
| ribosomal protein uS9, M. smegmatis (natural protein, UniProt A0QSP9 1-150, looked up, ribosomal protein uS9 of M. smegmatis; C-terminal residue R150; Stood in the assay as a part of the 70S ribosome; also called r-protein uS9; source: endogenous, in ribosomes purified from M. smegmatis MC2 155) MTDVTETEVVTESAEPREPVIIDRPIQTVGRRKEAVVRVRLVPGTGQFNLDGRTLENYFPNKVHQQLIKAPLVTVDRVDQFDIYAHLDGGGPSGQAGALRLAIARALILVQPEDRPALKKAGFLTRDPRAIERKKYGLKKARKAPQYSKR | binds |  |
